According to patent US5622828:

Legend:
Experiment in all cases: filter
[1] = target: T1, secretory phospholipase A2 (sPLA2) (Homo sapiens) (UniProt P14555); settings: TBSC, 37 C
T1 sequence: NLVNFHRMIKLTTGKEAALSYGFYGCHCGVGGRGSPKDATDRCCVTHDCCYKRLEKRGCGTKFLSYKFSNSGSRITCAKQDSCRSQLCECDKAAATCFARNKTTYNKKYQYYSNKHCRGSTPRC

[2] = test system: immunoglobulin G (IgG) (Homo sapiens); settings: 2'-NH2 all C and U, TBSC
[3] = target: pancreatic phospholipase A2 (bpPLA2) (Bos taurus) (UniProt P00593); settings: random pool; TBSC
Chain of pancreatic phospholipase A2 (bpPLA2) (Bos taurus) (P00593 23-145): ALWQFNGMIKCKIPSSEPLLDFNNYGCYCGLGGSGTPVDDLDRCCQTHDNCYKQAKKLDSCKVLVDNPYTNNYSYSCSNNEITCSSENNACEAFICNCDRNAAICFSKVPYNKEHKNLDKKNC

[4] = target: lysozyme (egg white) (Gallus gallus) (UniProt P00698); settings: random pool; TBSC
Chain of lysozyme (egg white) (Gallus gallus) (P00698 19-147): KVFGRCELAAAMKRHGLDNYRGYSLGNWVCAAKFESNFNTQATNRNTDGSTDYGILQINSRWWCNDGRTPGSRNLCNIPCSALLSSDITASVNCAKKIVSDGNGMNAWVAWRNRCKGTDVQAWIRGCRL

[5] = target: basic fibroblast growth factor (bFGF) (Homo sapiens) (UniProt P09038); settings: random pool, TBSC
Chain of basic fibroblast growth factor (bFGF) (Homo sapiens) (P09038 143-288): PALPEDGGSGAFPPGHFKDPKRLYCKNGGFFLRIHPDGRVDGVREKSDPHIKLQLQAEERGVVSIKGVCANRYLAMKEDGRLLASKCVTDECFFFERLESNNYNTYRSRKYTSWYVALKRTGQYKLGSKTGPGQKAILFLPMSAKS

[6] = target: T2, neutrophil elastase (Homo sapiens) (UniProt P08246); settings: 2'-NH2 all C and U; random pool; TBSC
T2 sequence: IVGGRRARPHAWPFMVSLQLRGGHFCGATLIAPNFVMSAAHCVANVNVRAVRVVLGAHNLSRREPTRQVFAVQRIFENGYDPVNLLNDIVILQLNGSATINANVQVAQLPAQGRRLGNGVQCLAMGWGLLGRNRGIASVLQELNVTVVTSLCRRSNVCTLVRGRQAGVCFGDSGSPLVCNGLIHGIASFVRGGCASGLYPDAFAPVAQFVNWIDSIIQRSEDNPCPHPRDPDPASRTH

[7] = target: C1q (printed Clq) (Homo sapiens) (UniProt P02745+P02746+P02747); settings: 2'-NH2 all C and U; random pool; TBSC
Chain of C1q (printed Clq) (Homo sapiens) (P02745 23-245, chain 1 of 3): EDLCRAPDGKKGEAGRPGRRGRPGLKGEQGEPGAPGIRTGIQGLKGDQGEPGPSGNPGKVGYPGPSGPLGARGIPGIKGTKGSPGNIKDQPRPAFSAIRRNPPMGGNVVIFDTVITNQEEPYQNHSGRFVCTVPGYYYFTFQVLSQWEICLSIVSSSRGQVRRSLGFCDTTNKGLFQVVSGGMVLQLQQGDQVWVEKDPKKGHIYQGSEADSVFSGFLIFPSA
Chain of C1q (printed Clq) (Homo sapiens) (P02746 28-253, chain 2 of 3): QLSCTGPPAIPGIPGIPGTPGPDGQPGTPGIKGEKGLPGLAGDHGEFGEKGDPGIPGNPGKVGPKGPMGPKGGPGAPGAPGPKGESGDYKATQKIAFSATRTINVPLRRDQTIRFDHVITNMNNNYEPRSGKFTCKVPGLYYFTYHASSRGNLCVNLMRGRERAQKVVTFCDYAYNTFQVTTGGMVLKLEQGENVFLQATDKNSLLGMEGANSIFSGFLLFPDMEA
Chain of C1q (printed Clq) (Homo sapiens) (P02747 29-245, chain 3 of 3): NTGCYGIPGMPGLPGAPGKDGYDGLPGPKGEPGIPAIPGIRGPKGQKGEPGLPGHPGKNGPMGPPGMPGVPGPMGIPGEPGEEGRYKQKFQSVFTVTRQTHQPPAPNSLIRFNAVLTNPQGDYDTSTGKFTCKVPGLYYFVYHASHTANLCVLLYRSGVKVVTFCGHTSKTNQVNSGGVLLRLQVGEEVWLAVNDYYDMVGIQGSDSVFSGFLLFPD

[8] = 2'-NH2 all C and U, random starting pool

Q: How did the Kd ([1]; biphasic, Kd2 420 nM, mole fraction 0.40) turn out when “GGGAGCUCAGAAUAAACGCUCAAGANCUCUGCUUACAGCCCGGCUGGGACACUUCGACAUGAGGCCCGGAUCCGGC [75t (75)]” was run?
A: 0.0009 µM

Q: For “GGGAAAAGAAGACCGGCCGGCGCCAUAGCCGAGAUCCGAGGUGUUGCCGAGAA [NN19.15]”, which Kd ([2]; specificity control, like random RNA) is on record?
A: 4.3 µM

Q: For “GGGAGCUCAGAAUAAACGCUCAANNNNNNNNNNNNNNNNNNNNNNNNNNNNNNUUCGACAUGAGGCCCGGAUCCGGC [30N1 random RNA]”, which Kd [3] is on record?
A: 22.5 µM

Q: And the Kd ([1]; random pool, text of Example 2 gives 240 nM)?
A: 0.36 µM

Q: What about the Kd [4] of the same sequence?
A: 1.65 µM

Q: And the Kd [5]?
A: 0.27 µM

Q: “GGGAGGACGAUGCGGNNNNNNNNNNNNNNNNNNNNNNNNNNNNNNNNNNNNNNNNNNNNNNNNNNCAGACGACUCGCCCGA [50N7 random RNA]” was tested. Which Kd [1, 8] did it give?
A: 0.071 µM

Q: “GGGAGCUCAGAAUAAACGCUCAANNNNNNNNNNNNNNNNNNNNNNNNNNNNNNUUCGACAUGAGGCCCGGAUCCGGC [30N1F random RNA]” was tested. Which Kd ([1]; 2'-F all C and U, random 2'-F pool) did it give?
A: 0.035 µM

Q: “GGGAAAAGCGAAUCAUACACAAGANNNNNNNNNNNNNNNNNNNNNNNNNNNNNNNNNNNNNNNNNNNNNNNNNNGCUCCGCCAGAGACCAACCGAGAA [50N9 random RNA]” was tested. Which Kd ([2]; random pool) did it give?
A: > 5 µM

Q: What about the Kd [6] of the same sequence?
A: 0.07 µM

Q: And the Kd [7]?
A: 1 µM

Q: And the Kd [1, 8]?
A: 0.048 µM

Q: What about the Kd ([5]; 2'-NH2 all C and U) of the same sequence?
A: 0.17 µM

Q: For “GGGAAAAGCGAAUCAUACACAAGACCGGCCGGCGCCAUAGCCGAGAUCCGAGGUGUUGAACGAUAACUCGGUGCUCCGCCAGAGACCAACCGAGAA [NN19]”, which Kd ([2]; specificity control) is on record?
A: > 5 µM
